Reference: article PMC11070302 (Drug resistance updates : reviews and commentaries in …, 2024)

Biological target: the molecule itself
Test: non-reducing SDS-PAGE and protein staining

B1: PEPD^G278D, a recombinant and enzymatically inactive mutant of human peptidase D (enzyme, UniProt P12955 1-493, looked up)
chain: MAAATGPSFWLGNETLKVPLALFALNRQRLCERLRKNPAVQAGSIVVLQGGEETQRYCTDTGVLFRQESFFHWAFGVTEPGCYGVIDVDTGKSTLFVPRLPASHATWMGKIHSKEHFKEKYAVDDVQYVDEIASVLTSQKPSVLLTLRGVNTDSGSVCREASFDGISKFEVNNTILHPEIVECRVFKTDMELEVLRYTNKISSEAHREVMKAVKVGMKEYELESLFEHYCYSRGGMRHSSYTCICGSGENSAVLHYGHAGAPNDRTIQNGDMCLFDMDGEYYCFASDITCSFPANGKFTADQKAVYEAVLRSSRAVMGAMKPGVWWPDMHRLADRIHLEELAHMGILSGSVDAMVQAHLGAVFMPHGLGHFLGIDVHDVGGYPEGVERIDEPGLRSLRTARHLQPGMVLTVEPGIYFIDHLLDEALADPARASFLNREVLQRFRGFGGVRIEEDVVVTDSGIELLTCVPRTVEEIEACMAGCDKAFTPFSGPK
- stoichiometry N: 2
